Reference: patent publication US20240360223A1 (DRAGONFLY THERAPEUTICS, published 2024)
“And” between values parts separate entries of the source, which are not always exact repeats. Identical values can stand only once.

Assays:
human CD32a H131 [1] = molecular target: T1, human CD32a H131 (human, UniProt P12318 36-218, limits assumed); assay: SPR, steady state, average
T1 sequence (looked up): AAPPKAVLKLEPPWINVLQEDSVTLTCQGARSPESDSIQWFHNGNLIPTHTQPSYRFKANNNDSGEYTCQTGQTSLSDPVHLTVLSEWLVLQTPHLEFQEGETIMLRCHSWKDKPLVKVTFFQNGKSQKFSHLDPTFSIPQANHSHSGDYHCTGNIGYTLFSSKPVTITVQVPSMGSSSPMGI

cynomolgus CD16 [2] = molecular target: T2, cynomolgus CD16 (cynomolgus, UniProt Q8SPW2 17-208, limits assumed); assay: SPR, average
T2 construct: also called Cyno CD16; cynomolgus FcγRIII
T2 sequence (Q8SPW2 17-208 limits assumed): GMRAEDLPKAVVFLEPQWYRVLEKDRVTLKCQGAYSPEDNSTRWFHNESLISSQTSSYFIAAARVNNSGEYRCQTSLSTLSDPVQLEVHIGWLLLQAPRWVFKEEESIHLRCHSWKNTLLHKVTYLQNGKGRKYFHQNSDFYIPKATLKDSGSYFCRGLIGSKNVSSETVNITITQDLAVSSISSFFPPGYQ

[3] = molecular target: T3, human NKG2D (recombinant mFc-tagged dimer) (human, UniProt P26718 78-216); assay: SPR, average
T3 construct: also called hNKG2D
T3 sequence (looked up): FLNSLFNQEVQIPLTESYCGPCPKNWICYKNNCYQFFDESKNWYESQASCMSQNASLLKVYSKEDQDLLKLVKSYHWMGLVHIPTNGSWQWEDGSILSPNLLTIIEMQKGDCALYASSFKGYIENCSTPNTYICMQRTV
Excerpt: (§1) NKG2D is a native dimer, therefore recombinant mFc-tagged NKG2D dimer was used for this experiment. Two different fits were utilized to obtain the equilibrium affinity data: steady state affinity fit and kinetic fit.

[4] = molecular target: T4, cynomolgus monkey BAFF-R expressed on cells (cynomolgus monkey); assay: flow cytometry, cyno BAFF-R CHO cells
T4 construct: whole, on cells; also called cBAFF-R; cynoBAFF-R

human CD32b [5] = molecular target: T5, human CD32b (human, UniProt P31994 46-217, limits assumed); assay: SPR, steady state
T5 construct: also called FcγRIIb
T5 sequence (looked up): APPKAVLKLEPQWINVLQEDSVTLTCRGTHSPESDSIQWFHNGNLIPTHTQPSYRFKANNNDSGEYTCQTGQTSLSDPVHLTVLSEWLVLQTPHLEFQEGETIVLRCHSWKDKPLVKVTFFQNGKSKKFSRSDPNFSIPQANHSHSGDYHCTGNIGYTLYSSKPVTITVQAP

[6] = molecular target: T6, human BAFF-R expressed on cells (human, UniProt Q96RJ3 1-184); assay: blocking of BAFF-biotin on hBAFF-R CHO cells
T6 construct: Cell surface BAFF-R, endogenous on B cell lines and primary B cells or overexpressed on isogenic CHO cells; also called hBAFF-R; hBAFF-R-CHO

human CD16a V158 [7] = molecular target: T7, human CD16a V158 (human, UniProt P08637 17-208); assay: SPR, after 4 weeks at 40 °C
T7 construct: also called hCD16aV; hCD16a V158
T7 sequence (P08637 17-208 F176V limits assumed): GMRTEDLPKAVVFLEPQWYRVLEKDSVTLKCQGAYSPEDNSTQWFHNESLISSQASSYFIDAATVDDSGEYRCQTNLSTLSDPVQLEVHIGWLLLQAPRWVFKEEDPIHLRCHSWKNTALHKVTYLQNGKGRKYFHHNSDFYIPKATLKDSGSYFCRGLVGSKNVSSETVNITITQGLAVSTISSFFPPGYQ

[8] = molecular target: T3, human NKG2D (recombinant mFc-tagged …); assay: SPR, after 4 weeks at 40 °C
[9] = molecular target: T8, cynomolgus NKG2D (recombinant mFc-tagged dimer) (cynomolgus, UniProt P61252 78-216); assay: SPR, steady state fit
T8 construct: also called cyno NKG2D
T8 sequence (looked up): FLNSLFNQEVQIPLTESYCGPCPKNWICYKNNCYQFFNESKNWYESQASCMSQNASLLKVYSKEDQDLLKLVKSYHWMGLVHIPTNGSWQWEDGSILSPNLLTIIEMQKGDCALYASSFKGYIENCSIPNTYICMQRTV
Excerpt: (§2) Two different fits were utilized to obtain the equilibrium affinity data: steady state affinity fit and kinetic fit.

[10] = molecular target: T3, human NKG2D (recombinant mFc-tagged …); assay: SPR, kinetics fit, average
Excerpt: as §1

human CD16b [11] = molecular target: T9, human CD16b (human, UniProt O75015 17-200, limits assumed); assay: SPR, steady state
T9 construct: also called FcγRIIIb
T9 sequence (O75015 17-200 limits assumed): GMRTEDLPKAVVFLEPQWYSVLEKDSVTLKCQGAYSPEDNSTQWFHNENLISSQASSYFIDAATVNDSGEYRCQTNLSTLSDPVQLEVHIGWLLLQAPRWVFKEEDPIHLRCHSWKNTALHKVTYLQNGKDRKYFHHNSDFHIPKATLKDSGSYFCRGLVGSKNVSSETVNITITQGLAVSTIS

[12] = molecular target: T6, human BAFF-R expressed on cells; assay: flow cytometry, SUDHL-6 cells
human CD16a V158 [13] = molecular target: T7, human CD16a V158; assay: SPR, recombinant receptor; reference trastuzumab
human CD32a H131 [14] = molecular target: T1, human CD32a H131; assay: SPR, recombinant receptor; reference trastuzumab
human CD16a F158 = human CD16a F158 (human, UniProt P08637 17-208); assay: SPR, recombinant receptor; reference trastuzumab
Chain of human CD16a F158 (P08637 17-208 limits assumed): as the sequence (P08637 17-208 F176V limits assumed) above, with V160F counted along it

human CD32a R131 = molecular target: T10, human CD32a R131 (human, UniProt P12318 36-218, limits assumed); assay: SPR, recombinant receptor; reference trastuzumab
T10 construct: also called FcγRIIa R131
T10 sequence (looked up): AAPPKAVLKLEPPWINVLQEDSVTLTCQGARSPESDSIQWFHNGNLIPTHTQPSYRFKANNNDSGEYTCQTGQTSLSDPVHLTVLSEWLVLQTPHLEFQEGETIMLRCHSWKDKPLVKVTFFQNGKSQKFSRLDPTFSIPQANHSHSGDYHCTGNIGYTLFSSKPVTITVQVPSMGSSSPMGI

human CD64 [15] = molecular target: T11, human CD64 (human, UniProt P12314 16-288, limits assumed); assay: SPR, recombinant receptor; reference trastuzumab
T11 construct: also called FcγRI
T11 sequence (P12314 16-288 limits assumed): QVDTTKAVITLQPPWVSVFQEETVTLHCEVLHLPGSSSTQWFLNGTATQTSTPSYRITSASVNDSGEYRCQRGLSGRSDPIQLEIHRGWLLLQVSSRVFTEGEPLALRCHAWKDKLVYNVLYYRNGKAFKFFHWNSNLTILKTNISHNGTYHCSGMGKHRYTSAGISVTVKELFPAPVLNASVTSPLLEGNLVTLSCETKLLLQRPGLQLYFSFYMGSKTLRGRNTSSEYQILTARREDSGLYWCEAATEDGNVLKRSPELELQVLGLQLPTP

human CD16b [16] = molecular target: T9, human CD16b; assay: SPR, recombinant receptor; reference trastuzumab
cynomolgus CD16 [17] = molecular target: T2, cynomolgus CD16; assay: SPR, recombinant receptor; reference trastuzumab
human CD32b [18] = molecular target: T5, human CD32b; assay: SPR, recombinant receptor; reference trastuzumab
[19] = molecular target: T8, cynomolgus NKG2D (recombinant …); assay: SPR, kinetics fit
Excerpt: as §2

human CD64 [20] = molecular target: T11, human CD64; assay: SPR, average
Method: Binding analyses as described in this Example were performed using SPR, as described in Example 4.

human CD32a H131 [21] = molecular target: T1, human CD32a H131; assay: SPR, steady state

B1: AB1424/AB1612 F3′ TriNKET (bispecific antibody, human IgG1, kappa)
chain: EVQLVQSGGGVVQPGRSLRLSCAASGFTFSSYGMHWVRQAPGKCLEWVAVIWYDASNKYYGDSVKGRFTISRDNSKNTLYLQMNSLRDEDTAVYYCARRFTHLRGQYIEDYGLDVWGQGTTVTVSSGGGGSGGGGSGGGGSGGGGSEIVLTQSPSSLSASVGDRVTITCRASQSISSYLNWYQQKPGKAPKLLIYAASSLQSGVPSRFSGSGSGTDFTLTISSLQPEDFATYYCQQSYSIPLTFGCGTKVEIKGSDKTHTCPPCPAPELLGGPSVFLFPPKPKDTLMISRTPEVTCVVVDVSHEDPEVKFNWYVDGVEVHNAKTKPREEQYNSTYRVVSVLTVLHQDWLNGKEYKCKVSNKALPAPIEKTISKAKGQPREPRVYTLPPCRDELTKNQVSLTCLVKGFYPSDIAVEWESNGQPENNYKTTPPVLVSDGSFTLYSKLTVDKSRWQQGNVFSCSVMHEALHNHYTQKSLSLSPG
heavy: EVQLVESGGGLVKPGGSLRLSCAASGFTFSSYSMNWVRQAPGKGLEWVSSISSSSSYIYYADSVKGRFTISRDNAKNSLYLQMNSLRAEDTAVYYCARGAPIGAAAGWFDPWGQGTLVTVSSASTKGPSVFPLAPSSKSTSGGTAALGCLVKDYFPEPVTVSWNSGALTSGVHTFPAVLQSSGLYSLSSVVTVPSSSLGTQTYICNVNHKPSNTKVDKKVEPKSCDKTHTCPPCPAPELLGGPSVFLFPPKPKDTLMISRTPEVTCVVVDVSHEDPEVKFNWYVDGVEVHNAKTKPREEQYNSTYRVVSVLTVLHQDWLNGKEYKCKVSNKALPAPIEKTISKAKGQPREPQVCTLPPSRDELTENQVSLTCLVKGFYPSDIAVEWESNGQPENNYKTTPPVLDSDGSFFLYSWLTVDKSRWQQGNVFSCSVMHEALHNHYTQKSLSLSPG
light: DIQMTQSPSSVSASVGDRVTITCRASQGISSWLAWYQQKPGKAPKLLIYAASSLQSGVPSRFSGSGSGTDFTLTISSLQPEDFATYYCQQGVSFPRTFGGGTKVEIKRTVAAPSVFIFPPSDEQLKSGTASVVCLLNNFYPREAKVQWKVDNALQSGNSQESVTEQDSKDSTYSLSSTLTLSKADYEKHKVYACEVTHQGLSSPVTKSFNRGEC
notes: Chain S: anti-BAFF-R scFv-CH2-CH3; chain H: anti-NKG2D VH-CH1-CH2-CH3; chain L: anti-NKG2D VL-CL; also called AB1612-002
Which results are given for B1?
Kd (human CD32a H131 [1]): 1000 nM; Kd (cynomolgus CD16 [2]): 271 nM; koff (cynomolgus CD16 [2]): 0.021 s⁻¹; kon (cynomolgus CD16 [2]): 76000 M⁻¹ s⁻¹; koff [3]: 0.11 s⁻¹; kon [3]: 240000 M⁻¹ s⁻¹; EC50 [4]: 1.85 nM; Kd (human CD32b [5]): 5900 nM and 5500 nM and 5800 nM and 6300 nM; IC50 [6]: 6.76 nM; Kd (human CD16a V158 [7]): 145 nM; koff (human CD16a V158 [7]): 0.016 s⁻¹; kon (human CD16a V158 [7]): 120000 M⁻¹ s⁻¹; koff [8]: 0.1 s⁻¹; kon [8]: 210000 M⁻¹ s⁻¹; Kd [9]: 618 nM and 630 nM and 589 nM and 600 nM; Kd [10]: 456 nM; Kd (human CD16b [11]): 7000 nM and 6300 nM and 7900 nM and 6400 nM; EC50 [12]: 0.41 nM; Max FOB [12]: 19 fold over background; fold difference in binding against trastuzumab (human CD16a V158 [13]): < 3 fold; fold difference in binding against trastuzumab (human CD32a H131 [14]): < 1.2 fold; fold difference in binding against trastuzumab (human CD16a F158): < 3 fold; fold difference in binding against trastuzumab (human CD32a R131): < 1.2 fold; fold difference in binding against trastuzumab (human CD64 [15]): < 3 fold; fold difference in binding against trastuzumab (human CD16b [16]): < 3 fold; fold difference in binding against trastuzumab (cynomolgus CD16 [17]): < 3 fold; fold difference in binding against trastuzumab (human CD32b [18]): < 1.2 fold; Kd [19]: 609 nM and 617 nM and 572 nM and 587 nM; Kd (human CD64 [20]): 3.2 nM; koff (human CD64 [20]): 0.00023 s⁻¹; kon (human CD64 [20]): 73000 M⁻¹ s⁻¹; Kd (human CD32a H131 [21]): 900 nM and 1100 nM and 1000 nM
